The series “mass photometry” deals with the molecule itself. The series can be described thus: mass photometry.
The series “SEC” deals with the molecule itself. The series can be described thus: SEC. A general note: Size exclusion chromatography separates by hydrodynamic size, large species first.

Where “and” joins values, the source holds several entries; their conditions need not be identical. Identical values can stand only once.

B1: Hermes transposase (full-length, with the mutations Q2E and K128G) (enzyme, Musca domestica, UniProt Q25438 1-612, looked up)
chain: MEKMDNLEVKAKINQGLYKITPRHKGTSFIWNVLADIQKEDDTLVEGWVFCRKCEKVLKYTTRQTSNLCRHKCCASLKQSRELKTVSADCKKEAIEKCAQWVVRDCRPFSAVSGSGFIDMIKFFIKVGAEYGEHVNVEELLPSPITLSRKVTSDAKEKKALISREIKSAVEKDGASATIDLWTDNYIKRNFLGVTLHYHENNELRDLILGLKSLDFERSTAENIYKKLKAIFSQFNVEDLSSIKFVTDRGANVVKSLANNIRINCSSHLLSNVLENSFEETPELNMPILACKNIVKYFKKANLQHRLRSSLKSECPTRWNSTYTMLRSILDNWESVIQILSEAGETQRIVHINKSIIQTMVNILDGFERIFKELQTCSSPSLCFVVPSILKVKEICSPDVGDVADIAKLKVNIIKNVRIIWEENLSIWHYTAFFFYPPALHMQQEKVAQIKEFCLSKMEDLELINRMSSFNELSATQLNQSDSNSHNSIDLTSHSKDISTTSFFFPQLTQNNSREPPVCPSDEFEFYRKEIVILSEDFKVMEWWNLNSKKYPKLSKLALSLLSIPASSAASERTFSLAGNIITEKRNRIGQQTVDSLLFLNSFYKNFCKLDI
Regarding B1, the stoichiometry N (as a rule, a count of units in the complex or per binding partner) in the series “mass photometry” was 2; in the series “SEC” it was 8 and 6.

These data come from publication doi:10.1101/2022.09.16.508221 (bioRxiv, 2022).
